# ± gives the standard deviation of the averaged measurements.
# Key:
# [1] = test system: VchCAST RNA-guided transposition machinery (E. coli BL21(DE3) host, lacZ target); assay: relative integration efficiency (T-LR orientation) vs wild-type transposon end (log2 (normalized fold change)); transposon end mutated: right end (5 bp flank + 75 bp right end); higher = more efficient transposition
# Summary of the method: (§1)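 A T7-driven effector plasmid encoding a CRISPR array, tniQ-cas8-cas7-cas6 and tnsA-tnsB-tnsC was co-transformed into E. coli BL21(DE3) together with a pUC57 mini-transposon donor holding barcoded pools of 1549 left-end or 1849 right-end variants. Transformants were plated with 0.1 mM IPTG at 37°C for 18 h. Illumina sequencing of PCR-amplified input plasmids and genomic integration junctions gave barcode abundances, and relative integration efficiency is their output/input fold change, normalised to reference barcodes and log-transformed.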
# [2] = test system: VchCAST RNA-guided transposition machinery (E. coli BL21(DE3) host, lacZ target); assay: relative integration efficiency (T-RL orientation) vs wild-type transposon end (log2 (normalized fold change)); transposon end mutated: right end (5 bp flank + 75 bp right end); higher = more efficient transposition
# Summary of the method: as §1
Sequence,relative integration efficiency (log2) [1],relative integration efficiency (log2) [2]
ACATTTGTTGATACAACCATAAAATGATAATTACACCCATAAATTGATAATTATCACACCCATAAATTGATATTGCCAACCATAAAATGATAATTACTCTGATCATAGTCAGACCAAGCACCGACAC,-0.138 ± 0.05,-1.11 ± 0.39
ACATTTGTTGATACAACCATAAAATGATAATTACACCCATAAATTGATAATTATCACACCCATAAATTGATATTGCCAGTGATCATAGTCAGACCAACATTGCTACGACCCGTATTCGCACCGACAC,-0.53 ± 0.12,-0.39 ± 0.14
ACATTTGTTGATACAACCATAAAATGATAATTACACCCATAAATTGATAATTATCACACCCATAAATTGATATTGCCCAACCATAAAATGATAATTATCTGATCATAGTCAGACCAAGCACCGACAC,-0.886 ± 0.6,-0.0286 ± 0.28
ACATTTGTTGATACAACCATAAAATGATAATTACACCCATAAATTGATAATTATCACACCCATAAATTGATATTGCCGAGGATCATAGTCAGACCAACATTGCTACGACCCGTATTCGCACCGACAC,0.294 ± 0.46,0.325 ± 0.077
ACATTTGTTGATACAACCATAAAATGATAATTACACCCATAAATTGATAATTATCACACCCATAAATTGATATTGCCGATGATCATAGTCAGACCAACATTGCTACGACCCGTATTCGCACCGACAC,0.0792 ± 0.085,0.336 ± 0.0049
ACATTTGTTGATACAACCATAAAATGATAATTACACCCATAAATTGATAATTATCACACCCATAAATTGATATTGCCTAGGATCATAGTCAGACCAACATTGCTACGACCCGTATTCGCACCGACAC,0.23 ± 0.42,0.0464 ± 0.076
ACATTTGTTGATACAACCATAAAATGATAATTACACCCATAAATTGATAATTATCACACCCATAAATTGATATTGCCTCAACCATAAAATGATAATTACTGATCATAGTCAGACCAAGCACCGACAC,-1.08 ± 0.72,-0.275 ± 0.21
ACATTTGTTGATACAACCATAAAATGATAATTACACCCATAAATTGATAATTATCACACCCATAAATTGATATTGCCTCCAACCATAAAATGATAATTATGATCATAGTCAGACCAAGCACCGACAC,-0.77 ± 0.082,-0.0389 ± 0.26
ACATTTGTTGATACAACCATAAAATGATAATTACACCCATAAATTGATAATTATCACACCCATAAATTGATATTGCCTCTAAAGTGTACAACACTTGAGAAAGTTTACTACAGGTATGCACCGACAC,0.483 ± 0.017,-0.293 ± 0.28
ACATTTGTTGATACAACCATAAAATGATAATTACACCCATAAATTGATAATTATCACACCCATAAATTGATATTGCCTCTACATGAATTCAAAGTTATGTAATATAGTACTATGTACGCACCGACAC,0.172 ± 0.19,-0.373 ± 0.31
ACATTTGTTGATACAACCATAAAATGATAATTACACCCATAAATTGATAATTATCACACCCATAAATTGATATTGCCTCTAGCTTGATCTACATTGGATTGCCATTCTCTCACAGTAGCACCGACAC,0.213 ± 0.1,0.0681 ± 0.22
ACATTTGTTGATACAACCATAAAATGATAATTACACCCATAAATTGATAATTATCACACCCATAAATTGATATTGCCTCTATGTACACTGATGAGTTATTACACCTCAAGTTCAATGGCACCGACAC,-0.281 ± 0.31,-0.228 ± 0.28
ACATTTGTTGATACAACCATAAAATGATAATTACACCCATAAATTGATAATTATCACACCCATAAATTGATATTGCCTCTCAACCATAAAATGATAATTAGATCATAGTCAGACCAAGCACCGACAC,0.308 ± 0.018,-0.0518 ± 0.26
ACATTTGTTGATACAACCATAAAATGATAATTACACCCATAAATTGATAATTATCACACCCATAAATTGATATTGCCTCTCAGACCACATAGCTGCCATGTCCTGATCGGACGGACCGCACCGACAC,0.624 ± 0.19,0.787 ± 0.22
ACATTTGTTGATACAACCATAAAATGATAATTACACCCATAAATTGATAATTATCACACCCATAAATTGATATTGCCTCTCCGACCCGGAAGAGGGCGCCTAGAATTGGGAGTGGTCGCACCGACAC,0.134 ± 0.075,0.139 ± 0.13
ACATTTGTTGATACAACCATAAAATGATAATTACACCCATAAATTGATAATTATCACACCCATAAATTGATATTGCCTCTCGCGAGAGGCCGGCAGCCGTCTGGCGTCGGGTGGCGGGCACCGACAC,0.646 ± 0.53,0.713 ± 0.16
ACATTTGTTGATACAACCATAAAATGATAATTACACCCATAAATTGATAATTATCACACCCATAAATTGATATTGCCTCTGACAACCATAAAATGATAATTATCATAGTCAGACCAAGCACCGACAC,-0.0996 ± 0.32,-0.213 ± 0.28
ACATTTGTTGATACAACCATAAAATGATAATTACACCCATAAATTGATAATTATCACACCCATAAATTGATATTGCCTCTGACTTAAACAAAATATATCTTGCCCGCCTTACAAATAGCACCGACAC,0.774 ± 0.22,0.417 ± 0.32
ACATTTGTTGATACAACCATAAAATGATAATTACACCCATAAATTGATAATTATCACACCCATAAATTGATATTGCCTCTGATAACTTCGTATAAAGTATCCTATACGAAGTTATTCGCACCGACAC,0.85 ± 0.066,-0.255 ± 0.26
ACATTTGTTGATACAACCATAAAATGATAATTACACCCATAAATTGATAATTATCACACCCATAAATTGATATTGCCTCTGATAACTTCGTATAAGGTATACTATACGAAGTTATTCGCACCGACAC,1.55 ± 0.38,-0.433 ± 0.28
ACATTTGTTGATACAACCATAAAATGATAATTACACCCATAAATTGATAATTATCACACCCATAAATTGATATTGCCTCTGATAACTTCGTATAATGTATACTATACGAAGTTATTCGCACCGACAC,1.63 ± 0.07,-1.3 ± 0.39
ACATTTGTTGATACAACCATAAAATGATAATTACACCCATAAATTGATAATTATCACACCCATAAATTGATATTGCCTCTGATAACTTCGTATAATGTATCGTATACGAACGGTATCGCACCGACAC,-0.264 ± 0.53,-0.379 ± 0.29
ACATTTGTTGATACAACCATAAAATGATAATTACACCCATAAATTGATAATTATCACACCCATAAATTGATATTGCCTCTGATAACTTCGTATAATGTATGCTATACGAAGTTATTCGCACCGACAC,0.719 ± 0.031,-0.484 ± 0.19
ACATTTGTTGATACAACCATAAAATGATAATTACACCCATAAATTGATAATTATCACACCCATAAATTGATATTGCCTCTGATAACTTCGTATAGCATACATTATACGAAGTTATTCGCACCGACAC,2.48 ± 0.26,-3.13 ± 0.076
ACATTTGTTGATACAACCATAAAATGATAATTACACCCATAAATTGATAATTATCACACCCATAAATTGATATTGCCTCTGATAACTTCGTATAGGATACTTTATACGAAGTTATTCGCACCGACAC,1.19 ± 0.28,-0.663 ± 0.27
ACATTTGTTGATACAACCATAAAATGATAATTACACCCATAAATTGATAATTATCACACCCATAAATTGATATTGCCTCTGATAACTTCGTATAGTATACATTATACGAAGTTATTCGCACCGACAC,2.27 ± 0.2,-2.13 ± 0.21
ACATTTGTTGATACAACCATAAAATGATAATTACACCCATAAATTGATAATTATCACACCCATAAATTGATATTGCCTCTGATAACTTCGTATAGTATACCTTATACGAAGTTATTCGCACCGACAC,1.034 ± 0.0024,-0.958 ± 0.26

# — the supplement of paper PMC10201428
